The results in this text go back to paper PMC7048800.

Assay [1] has as its target HsNMT1ΔC2 (HsNMT1 deletion variant with truncation of the last two amino acids) (human) (UniProt P30419).
Assay [2] addresses HsNMT1ΔC3 (HsNMT1 variant with truncation of the last three amino acids) (human) (UniProt P30419).
In assay [3] the target is T1, Long-HsNMT1 (human N-myristoyltransferase 1, residues 99-496) (human) (UniProt P30419).
T1 sequence: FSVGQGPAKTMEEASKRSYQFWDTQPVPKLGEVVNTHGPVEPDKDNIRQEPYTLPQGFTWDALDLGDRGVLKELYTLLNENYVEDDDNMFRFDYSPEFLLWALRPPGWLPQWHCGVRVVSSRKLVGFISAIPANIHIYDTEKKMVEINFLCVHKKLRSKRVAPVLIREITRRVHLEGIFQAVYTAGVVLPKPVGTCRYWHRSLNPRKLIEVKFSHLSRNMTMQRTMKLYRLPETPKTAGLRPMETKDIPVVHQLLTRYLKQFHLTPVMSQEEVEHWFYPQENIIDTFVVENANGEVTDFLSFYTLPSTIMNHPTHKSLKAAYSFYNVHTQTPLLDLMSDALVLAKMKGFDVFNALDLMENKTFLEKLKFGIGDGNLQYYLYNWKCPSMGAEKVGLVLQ

As to GCSVSKKK [GlyCysSerValSerLysLysLys (SOS3) peptide], the figures for the Km for the peptide in the fluorescence-based coupled in vitro MYR assay with MyrCoA, 30 °C in assay [1], in assay [2] and in assay [3] were 629 µM, 2140 µM and 18 µM, respectively.
